Measured values as given in the supplement of paper PMC10567573.
± gives the standard deviation.

Assay: protein stability index of a GFP-peptide fusion (GPS, HEK-293T) (PSI 1-6); higher = more stable
[1] = treatment: DMSO, c terminus: a fixed tail appended
[2] = treatment: MLN4924 1 uM, 8 h, c terminus: a fixed tail appended
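Also: 24-mer peptide tiles fused after GFP, lentivirally expressed, FACS-sorted into six equal bins by GFP/DsRed ratio, decoded by Illumina sequencing, PSI is the read-weighted mean bin number.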

| Sequence | protein stability index [1] | protein stability index [2] | protein stability index (treatment: DMSO, c terminus: native) | protein stability index (treatment: MLN4924 1 uM, 8 h, c terminus: native) |
| --- | --- | --- | --- | --- |
| GWILIDRCGKHFGTILNYLRDGAV [KCTD10] | 3.08 ± 0.41 | 2.38 ± 0.52 |  |  |
| GYQRKCYFISTVKRSWTSAQNACS [CD69] | 2.46 ± 0.66 | 1.85 ± 0.59 |  |  |
| HAFQKELTCVICLNYLVDPVTICC [TRIM43] | 3.04 ± 0.33 | 2.95 ± 0.4 |  |  |
| HCKEKRKTSLLDQLTNTSGTVIGV [NETO1] | 3.37 ± 0.24 | 3.34 ± 0.31 |  |  |
| HCMLVSNRVSWWGSTLAMLQRLKE [ZBED1] | 3.29 ± 0.18 | 3.46 ± 0.37 |  |  |
| HEEVVEKVKKSGSRVMFLLVDKET [PDZK1] | 3.97 ± 0.17 | 4.25 ± 0.23 |  |  |
| HFMVLSKSGPGDGFFSSAFQARLS [POMT2] | 2.19 ± 0.11 | 2.06 ± 0.18 |  |  |
| HFPYDLHLRSQSLTMQDELNAVFH [NEUROD6] | 2.81 ± 0.19 | 2.92 ± 0.27 |  |  |
| HGAHINLQSLKFQGGHGPAATLLR [RIPK4] | 2.65 ± 0.36 | 3 ± 0.047 |  |  |
| HGQAGQRQDPRPHGPQLPTGIEGN [ZBED2] | 4.91 ± 0.13 | 5.11 ± 0.15 |  |  |
| HGQEGSILVTKVEEPSKYGVVVCE [GMPPB] | 3.9 ± 0.13 | 3.94 ± 0.25 |  |  |
| HILASAPTDRNLCHFQALGCRTTH [PYCR3] | 2.19 ± 0.45 | 2.23 ± 0.15 |  |  |
| HLVQHQHPNSRKSSAGGAKAGQPE [ZNF8] | 4.8 ± 0.18 | 4.79 ± 0.16 |  |  |
| HMEGLIVRERILGADNIDVSHPII [FEM1B] | 3.25 ± 0.23 | 2.95 ± 0.28 |  |  |
| HMTRHLEESEKAMQERVQRLEAAR [LRRC45] | 5.15 ± 0.06 | 5.06 ± 0.19 |  |  |
| HPWKWSNGKEFNNWFNVTGSDKCV [CD69] | 2.58 ± 0.53 | 2.46 ± 0.17 |  |  |
| HQRIHTGEKPYECVQCGKSYSQSS [ZNF24] | 3.79 ± 0.4 | 3.92 ± 0.28 |  |  |
| HSGDLGQLDGLGFLYVTGHIKEIL [ACSBG2] | 2.09 ± 0.17 | 2.19 ± 0.32 |  |  |
| HSKLLVSGFWGVARHFNYVGDLMG [DHCR7] | 2.34 ± 0.53 | 2.33 ± 0.44 |  |  |
| HTGERPFQCNQCGASFTQKGNLLR [IKZF1] | 2.21 ± 0.29 | 2.79 ± 0.52 |  |  |
| HTKPSQAPAVEVAPAGASYNPSFE [NOP53] | 4.86 ± 0.36 | 4.95 ± 0.19 |  |  |
| HVLLPVALEFQPQLVLVAAGFDAL [HDAC6] | 3.25 ± 0.43 | 2.78 ± 0.43 |  |  |

| Sequence | protein stability index [1] | protein stability index [2] | protein stability index (treatment: DMSO, c terminus: native) | protein stability index (treatment: MLN4924 1 uM, 8 h, c terminus: native) |
| --- | --- | --- | --- | --- |
| IAQAEEQARKRQEEREKEAAEQAE [SMARCE1] | 5.24 ± 0.12 | 5.892 ± 0.034 |  |  |
| IAQDTCTTTDHSSNPGPVPGSSSG [SPAG8] | 5.23 ± 0.44 | 5.26 ± 0.23 |  |  |
| IASSDSEVEIVGVQEHARCVHPRG [C18orf25] | 4.49 ± 0.37 | 4.6 ± 0.1 |  |  |
| ICAIEYLHSKEIVYRDLKPENILL [PRKX] | 2.61 ± 0.39 | 2.96 ± 0.94 |  |  |
| IDASQLPHRVLETRGHAISILFGF [SMIM2] | 2.68 ± 0.54 | 2.51 ± 0.54 |  |  |
| IDGDGDDMERFMEEMRELRRKIRE [BEX5] | 3.26 ± 0.24 | 3.71 ± 0.34 |  |  |
| IEEACYAQTIPTKDRLEGLLAFKE [AUH] | 3.73 ± 0.46 | 3.55 ± 0.69 |  |  |
| IERQWGNLLGEGQHKCDECGKSFT [ZSCAN9] | 3.79 ± 0.34 | 3.55 ± 0.22 |  |  |
| IETYGPHVPELEMLGRLGYLNHVR [MNAT1] | 2.4 ± 0.1 | 2.62 ± 0.19 |  |  |
| IGLDNGTISEFILSEDYNKMTPVK [WDFY2] | 2.98 ± 0.47 | 3.16 ± 0.54 |  |  |
| IHCENCKTTLGWKYEQAFESSQKY [YPEL3] | 2.36 ± 0.38 | 2.62 ± 0.62 |  |  |
| IHSPAHPEIEKADDHLQQPLQNQK [ZNF649] | 5.39 ± 0.16 | 5.35 ± 0.37 |  |  |
| IIYMAILLTHRCLRDEHRCASKYG [DHCR7] | 2.83 ± 0.75 | 2.75 ± 0.81 |  |  |
| ILWDTLLRLCAWGLASWPLARGIH [POMT2] | 2.823 ± 0.003 | 3.27 ± 1.2 |  |  |
| INLEEKEKQIRSFLIEGPLINTIR [PLEKHN1] | 2.5 ± 0.13 | 2.67 ± 0.31 |  |  |
| INVNDLSFVTGSHVGELIIWDALD [WDR41] | 2.22 ± 0.41 | 2.12 ± 0.2 |  |  |
| IPIHGKGNFPTMEVKPKDIIHVVK [TENT5D] | 2.86 ± 0.24 | 2.93 ± 0.2 |  |  |
| IQEQPGQEQVAGGEAQPGLPQEDP [FEM1A] | 5.58 ± 0.16 | 5.57 ± 0.16 |  |  |
| IRKKLKDSGDVSNVIEKVKCILKT [RHOBTB3] | 3.1 ± 0.51 | 2.72 ± 0.94 |  |  |
| ISGVTKAISSPTVSRLTDTTKFTG [TPPP] | 3.89 ± 0.27 | 3.85 ± 0.17 |  |  |
| ISRLEQCGINANDVKKLEEAGFHT [RAD51] | 3.58 ± 0.15 | 3.9 ± 0.11 |  |  |
| ISSMADFWDFAQGPLLDSLYWTKW [PKD2L1] | 2.85 ± 1.3 | 2.53 ± 1.6 |  |  |

| Sequence | protein stability index [1] | protein stability index [2] | protein stability index (treatment: DMSO, c terminus: native) | protein stability index (treatment: MLN4924 1 uM, 8 h, c terminus: native) |
| --- | --- | --- | --- | --- |
| ITTPIIDTFKVPKEMFTVGCCVFA [SLC6A17] | 2.67 ± 0.59 | 2.86 ± 0.55 |  |  |
| IVIFCLETLPELKDDKDFTGTVHR [KCNA1] | 2.42 ± 0.46 | 2.16 ± 0.27 |  |  |
| IVIQTYYRQWHAKIFVENLRRQKS [IQUB] | 2.453 ± 0.011 | 3.12 ± 0.52 |  |  |
| IWVPIKIGALTYFAQADALKGTLV [ACSBG2] | 2.76 ± 0.71 | 3.08 ± 0.67 |  |  |
| IYTNRYETNEEDKTLQEIYRKYRK [FBXO39] | 2.96 ± 0.32 | 3.58 ± 0.61 |  |  |
| KALNTFIDDLFAFVIKMPVMYRIG [CLPTM1] | 3.02 ± 0.53 | 2.82 ± 0.5 |  |  |
| KDEWHKVFDLPESLGGIRACTLTV [KLHL13] | 2.89 ± 0.63 | 2.89 ± 0.83 |  |  |
| KDLTEYLKVRSHDPEEAIRHDVIV [PDS5B] | 3.26 ± 0.38 | 3.39 ± 0.14 |  |  |
| KEAQYIRTELVEQAFRAIDRADYY [PCMTD2] | 2.71 ± 0.27 | 2.88 ± 0.36 |  |  |
| KEGEGEVGGEAVEVEEVENVQTEF [TRIM55] | 5.716 ± 0.023 | 5.59 ± 0.37 |  |  |
| KEHYLTFEKSRYETYIHLLAMKIK [PSD2] | 3.28 ± 0.76 | 2.73 ± 0.94 |  |  |
| KEQILEFLVLEQFLTILPEELQSW [ZNF232] | 3.21 ± 0.27 | 2.85 ± 0.62 |  |  |
| KEQSKELQMKLEKLREKERKKEAK [FAM50A] | 5.02 ± 0.54 | 5.55 ± 0.16 |  |  |
| KEQVLRKGTENLQRAQAEVLQSVR [FCHSD1] | 4.5 ± 0.096 | 4.56 ± 0.27 |  |  |
| KETVNVKTVCGYYTSAGTYGLDSV [GMCL1] | 2.48 ± 0.29 | 2.68 ± 0.3 |  |  |
| KGLSGGFGSRSLYSLGGVRSLNVA [KRT71] | 2.58 ± 0.26 | 2.41 ± 0.39 |  |  |
| KHLLNLGVEIDEINVYGNTALHIA [ANKRD44] | 2.19 ± 0.34 | 2.07 ± 0.48 |  |  |
| KHWREWGSHAQTSQIQSIRRIQQ [CRYBA1] |  |  | 3.25 ± 0.69 | 3.19 ± 0.46 |
| KINVNEIFYDLVRQINRKTPVPGK [RAP1B] | 2.44 ± 0.4 | 2.25 ± 0.26 |  |  |
| KKDTGHIYAMKILRKSDMLEKEQV [STK38L] | 3.36 ± 0.39 | 3.54 ± 0.21 |  |  |
| KKKRPPQPPEESQPPQSQAQVPPA [PLK2] | 5.35 ± 0.23 | 5.46 ± 0.14 |  |  |
